Source: article doi:10.1101/2025.10.21.683800 (bioRxiv, 2025)
Where two headings read alike, the source gives them in different places.

Assays:
[1] = target: T1, MBP-FLAG-PPP1CC-His (human, UniProt P36873 1-323); experiment: ITC
[2] = target: T1, MBP-FLAG-PPP1CC-His; experiment: ITC; remark: listed apart in the source

T1 sequence (P36873 whole entry): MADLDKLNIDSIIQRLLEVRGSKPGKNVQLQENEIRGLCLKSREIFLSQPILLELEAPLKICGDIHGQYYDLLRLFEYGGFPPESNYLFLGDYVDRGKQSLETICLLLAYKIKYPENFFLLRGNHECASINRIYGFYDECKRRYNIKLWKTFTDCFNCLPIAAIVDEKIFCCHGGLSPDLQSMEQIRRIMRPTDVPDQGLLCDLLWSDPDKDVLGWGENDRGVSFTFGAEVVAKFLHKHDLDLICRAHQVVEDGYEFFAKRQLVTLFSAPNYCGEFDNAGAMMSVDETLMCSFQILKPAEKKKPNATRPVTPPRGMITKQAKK

B1: recombinant PPP1R2 (natural protein)
chain: MAASTASHRPIKGILKNKTSTTSSMVASAEQPRGNVDEELSKKSQKWDEMNILATYHPADKDYGLMKIDEPSTPYHSMMGDDEDACSDTEATEAMAPDILARKLAAAEGLEPKYRIQEQESSGEEDSDLSPEEREKKRQFEMKRKLHYNEGLNIKLARQLISKDLHDDDEDEEMLETADGESMNTEESNQGSTPSDQQQNKLRSS
Kd [1]: 1130 nM | Kd [2]: 3.59 µM
